Substitutions are numbered along the chain they refer to.

We go through 9 molecules from US20260250410A1, “ANTIBODY AND USE THEREOF” (SICHUAN HUIYU PHARMACEUTICAL CO., LTD., priority 2022, published 2026).

To fix the notation:
T1: HuCDCP1-C (Homo sapiens, UniProt Q9H5V8)
T1 construct: made in house; host or cells: HEK-293T
T1 sequence (Q9H5V8 30-667): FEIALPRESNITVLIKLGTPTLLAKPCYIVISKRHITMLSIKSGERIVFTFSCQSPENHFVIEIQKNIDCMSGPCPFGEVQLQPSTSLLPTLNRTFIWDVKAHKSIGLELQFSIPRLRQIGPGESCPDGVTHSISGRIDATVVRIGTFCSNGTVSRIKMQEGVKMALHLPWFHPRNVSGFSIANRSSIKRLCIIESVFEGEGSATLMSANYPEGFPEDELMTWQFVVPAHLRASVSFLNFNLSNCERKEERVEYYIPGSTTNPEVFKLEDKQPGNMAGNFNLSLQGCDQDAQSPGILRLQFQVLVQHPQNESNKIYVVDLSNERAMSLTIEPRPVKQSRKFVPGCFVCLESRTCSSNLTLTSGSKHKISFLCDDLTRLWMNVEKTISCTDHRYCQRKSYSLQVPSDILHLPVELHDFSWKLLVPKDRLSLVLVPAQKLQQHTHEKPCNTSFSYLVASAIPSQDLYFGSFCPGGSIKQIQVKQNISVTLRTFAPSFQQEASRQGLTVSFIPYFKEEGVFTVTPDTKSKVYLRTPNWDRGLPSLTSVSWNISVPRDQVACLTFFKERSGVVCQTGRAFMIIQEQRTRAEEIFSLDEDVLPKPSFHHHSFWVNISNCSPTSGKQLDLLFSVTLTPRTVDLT

B1: 1CP-112: humanized anti-CDCP1 antibody produced by 8E5; VH SEQ ID NO: 347, VL SEQ ID NO: 357 (antibody, V domains shown)
VH: QVQLVQSGSELKKPGASVKVSCKASGYTLTDFSMHWVRQAPGQGLEWMGWINTETGAPTYADDFKGRFVFSLDTSVSTAYLQISSLKAEDTAVYYCSRGRDYDPHFDYWGQGTLVTVSS
VL: EIVLTQSPATLSLSPGERATLSCRASQSISDFLHWYQQKPGQAPRLLIKYASQSISGIPARFSGSGPGSDFTLTISSVEPEDFAVYYCQSAHSFPYTFGQGTKLEIK
modifications: humanized antibody 8E5 heavy chain variable region 01; humanized antibody 8E5 light chain variable region 01
B2: 1CP-116: humanized anti-CDCP1 antibody produced by 8E5; VH SEQ ID NO: 347, VL SEQ ID NO: 358 (antibody, V domains shown)
VH: B1 VH
VL: B1 VL with A43S, P67S
modifications: humanized antibody 8E5 heavy chain variable region 01; humanized antibody 8E5 light chain variable region 02
B3: 1CP-114: humanized anti-CDCP1 antibody produced by 8E5; VH SEQ ID NO: 349, VL SEQ ID NO: 357 (antibody, V domains shown)
VH: B1 VH with A16E, F70L, A88S
VL: B1 VL
modifications: humanized antibody 8E5 heavy chain variable region 03; humanized antibody 8E5 light chain variable region 01
B4: 1CP-113: humanized anti-CDCP1 antibody produced by 8E5; VH SEQ ID NO: 348, VL SEQ ID NO: 357 (antibody, V domains shown)
VH: B1 VH with F70L
VL: B1 VL
modifications: humanized antibody 8E5 heavy chain variable region 01; humanized antibody 8E5 light chain variable region 01
B5: 5G9: anti-CDCP1 murine monoclonal antibody (hybridoma); VH SEQ ID NO: 241, VL SEQ ID NO: 292 (antibody, V domains shown)
VH: EVQLQQSGTVLARPGASVKMSCKASGYIFLNYWMHWVKQRPGQGLEWIGGIYPGNTDTTYNQKFKGKAKVTAVTSATTAYMELSSLTNEDSAVYYCIRYDYDRGMDYWGQGTTVTVSS
VL: DIVMTQAPAIMSASPGEKVTISCSASSSVSYIYWYQQKPGSSPKPWIYRTSNLASGVPARFSGSGSGTSYSLTISSMEAEDAATYYCQQYHSYPYTFGGGTKLEIK
modifications: 5G9 heavy chain variable region; 5G9 light chain variable region
B6: 6G9: anti-CDCP1 murine monoclonal antibody (hybridoma); VH SEQ ID NO: 244, VL SEQ ID NO: 295 (antibody, V domains shown)
VH: EVQLKESGPGLVKPSQSLSLTCTVTGYSITSDYAWNWIRQFPGNKLEWMGYIIYSGRTSYNPSLKSRISITRDTSKNQFFLQLNSVTTEDTATYYCAREDYYGGSYGGLDYWGQGTTVTVSS
VL: DIVMTQSPLSLPVSLGDQASISCRSSQSIVHSNGNTYLEWYLQKPGQSPKLLIYKVSNRFSGVPDRFSGSGSGTDFTLKISRVEAEDLGVYYCFQGSHVPWTFGGGTKLEIK
modifications: 6G9 heavy chain variable region; 6G9 light chain variable region
B7: 24G4: anti-CDCP1 murine monoclonal antibody (hybridoma); VH SEQ ID NO: 261, VL SEQ ID NO: 311 (antibody, V domains shown)
VH: EVQLKESGAELVRSGASVKLSCTASGFNIKDYYIHWVKQRPEQGLEWIGWIDPENGDTEYVPKFQGKATLTADTSSNTAYLQLNSLTSEDTAVYYCNPCGTGPWFAYWGQGTTVTVSS
VL: DIQMTQSPAILSASPGEKVTMTCRASSSVSYIHWYQQKPGSSPDPWIYATSFLASGVPGRFSGSGSGTSYSLTISRLEAEDAATYYCQQWNSSPFTFGGGTKLEIK
modifications: 24G4 heavy chain variable region; 24G4 light chain variable region
B8: 3F1A11: anti-CDCP1 murine monoclonal antibody (hybridoma); VH SEQ ID NO: 245, VL SEQ ID NO: 296 (antibody, V domains shown)
VH: EVKLVESGPGLVKPSQSLSLTCTVTGYSITSDYAWNWIRQFPGNKLEWMGYISYNTYTSYNPSLKSRISVTRDTSKNQFFLQLKSVTIEDTATYFCAGGDYYGTGAVDYWGQGTTVTVSS
VL: B6 VL with D1E, M4L, S26R, S28T, I29L, S32T, E39D, N58I, G71R, V90I
modifications: 3F1A11 heavy chain variable region; 3F1A11/3F1A11-H-12 light chain variable region
B9: 3F1A11-H-12: anti-CDCP1 murine monoclonal antibody (hybridoma); VH SEQ ID NO: 248, VL SEQ ID NO: 296 (antibody, V domains shown)
VH: EVKLVESGPGLVKPSQSLSLTCSVTGYSITSGYYWNWIRQFPGNKLDWMGYITYDDSHYYNPSLKDRLSITRDTSKNQFFLKLNSVTAEDTATYFCARGNYYANYPHAMDYWGQGTTVTVSS
VL: B6 VL with D1E, M4L, S26R, S28T, I29L, S32T, E39D, N58I, G71R, V90I
modifications: 3F1A11-H-12 heavy chain variable region; 3F1A11/3F1A11-H-12 light chain variable region

For one assay, the target named is T1, HuCDCP1-C. Briefly: Caterra affinity of humanized anti-CDCP1 antibodies. The class given is binding. Particulars: HuCDCP1-C 2 μg/ml immobilized. The procedure:
The humanized anti-CDCP1 antibodies obtained from Example 11 were subjected to gene cloning, constructed into pTT5 expression vector for a small amount of expression in CHO cells (Expi-CHOS: Gibco A29127), and purified with an Fc affinity column (AT Protein A Diamond Plus. No. AA402312). Antibody purity was analyzed by HPLC and determined by Nanodrop. High-throughput affinity assay was carried out for a small amount of antibodies by Caterra.
For the molecule B1, the “ka” value is 136000 M⁻¹ s⁻¹ and the “kd” value was 5e-05 s⁻¹.

Turning to B2, the “ka” value is 128000 M⁻¹ s⁻¹ and the “kd” value amounted to 4.59e-05 s⁻¹.

In the case of B3, the “ka” value was found to be 161000 M⁻¹ s⁻¹ and the “kd” value was found to be 0.00246 s⁻¹.

As for B4, the “ka” value stood at 143000 M⁻¹ s⁻¹ and the “kd” value worked out at 5.9e-05 s⁻¹.

Another assay has as its system MDA-MB-231 cells. In words: Endocytosis capacity of murine monoclonal antibody (flow cytometry internalization). The class given is cell-based, human. Conditions: MDA-MB-231, 0.5 h at 37° C., antibody 1.5 μg/mL. Here is the method: (§1) The endocytosis capacity of the antibody was detected for 0.5 to 2 hours. MDA-MB-231 and PC3 cells were subjected to digestion with 5 mM EDTA, and plated at 4×10^4 cells/well after cell counting. After adding an Fc blocker (Human TruStain FcX™, Biolegend, 422302) and blocking at room temperature for 10 mins, a test antibody (1.5 μg/mL) was added, and the mixture was incubated at 4° C. for 30 mins, centrifuged, and washed twice with PBS+2% FBS, then the cells were divided into four equal portions (labeled as 0 h, 0.5 h, 1 h, 2 h), cells labeled as 0.5 h, 1 h, 2 h time points were added to a cell culture medium at 200 µL/well, and cultured at 37° C. for 0.5 h, 1 h, 2 h, respectively. Cells at 0 h point were centrifuged to remove supernatant, a secondary antibody (PE anti-human IgG Fc Antibody, Biolegend, 410708) was added, and the mixture was incubated at 4° C. for 30 mins, centrifuged, and washed twice with PBS+2% FBS, and detection was performed using a flow cytometer. After incubation of cells labeled as 0.5 h, 1 h, and 2 h points at 37° C. was completed, a secondary antibody was added (in the same steps as those at 0 h point), Geo-MFI of the signal under the same voltage was collected as detection signal at 0 h, and antibody internalization rate was calculated according to the following equation: Internalization (%)=(Geo-MFI (0 h)-Geo-MFI (0.5, 1, 2 h))/Geo-MFI (0 h)×100%.
In the case of B5, the “Internalization MDA-MB-231 (%) 0.5 h” value stood at 0.00%.

For B6, the “Internalization MDA-MB-231 (%) 0.5 h” value is given as 75.76%.

Take B7: the “Internalization MDA-MB-231 (%) 0.5 h” value came out at 55.98%.

Still in this assay, the particulars now being: MDA-MB-231, 1 h at 37° C., antibody 1.5 μg/mL.
Consider B5, for which the “Internalization MDA-MB-231 (%) 1 h” value is recorded as 0.00%.

On to B6, for which the “Internalization MDA-MB-231 (%) 1 h” value turned out to be 86.81%.

Regarding B7, the “Internalization MDA-MB-231 (%) 1 h” value is 70.68%.

Staying with this assay, now noted: MDA-MB-231, 2 h at 37° C., antibody 1.5 μg/mL.
Take B5: the “Internalization MDA-MB-231 (%) 2 h” value came out at 0.00%.

Consider B6, for which the “Internalization MDA-MB-231 (%) 2 h” value came to 88.89%.

For the molecule B8, the “Internalization MDA-MB-231 (%) 2 h” value worked out at 38.10%.

Consider B9, for which the “Internalization MDA-MB-231 (%) 2 h” value is 37.57%.

For the molecule B7, the “Internalization MDA-MB-231 (%) 2 h” value stood at 83.23%.

A further assay concerns PC3 cells. The description is as above. The class given is cell-based, human. Conditions: PC3, 0.5 h at 37° C., antibody 1.5 μg/mL. Here is the method: as §1
For B5, the “Internalization PC3 (%) 0.5 h” value is 0.00%.

On to B6, for which the “Internalization PC3 (%) 0.5 h” value turned out to be 60.58%.

In the case of B7, the “Internalization PC3 (%) 0.5 h” value is on record as 46.97%.

Staying with this assay, now noted: PC3, 1 h at 37° C., antibody 1.5 μg/mL.
For B5, the “Internalization PC3 (%) 1 h” value turned out to be 0.00%.

Consider B6, for which the “Internalization PC3 (%) 1 h” value came out at 77.88%.

On to B7, for which the “Internalization PC3 (%) 1 h” value is 67.07%.

Still in this assay, the particulars now being: PC3, 2 h at 37° C., antibody 1.5 μg/mL.
Take B5: the “Internalization PC3 (%) 2 h” value came out at 0.00%.

For B6, the “Internalization PC3 (%) 2 h” value is on record as 87.67%.

B8: the “Internalization PC3 (%) 2 h” value was found to be 51.76%.

In the case of B9, the “Internalization PC3 (%) 2 h” value is listed as 33.83%.

As for B7, the “Internalization PC3 (%) 2 h” value is 82.61%.
